Experimental data from the supplement of paper PMC9170038.

Tested on: MS2 coat protein
Assay: apparent KD of MS2 coat protein; designed switch direction (-1 OFF switch, 1 ON switch): -1; higher = weaker reporter binding
Summary of the method: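 The apparent KD reported per design is the median over clusters of curve fits to normalised cluster fluorescence. The RNA switches were transcribed on Illumina chips by stalled E. coli RNA polymerase. SNAP-549-labelled MS2 coat protein was titrated from 0.7 or 1.5 nM, doubling up to 3 µM, in Tris-HCl pH 7.5 buffer containing KCl, MgCl2, BSA, DTT, tRNA and Tween-20, with no input, 200 uM small-molecule ligand, or an oligonucleotide input.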

[1] = input ligand: microRNA oligo, concentration not stated
[2] = Eterna round: R95, input ligand: FMN 200 uM
[3] = Eterna round: R95, input ligand: microRNA oligo, concentration not stated
[4] = Eterna round: R95, input ligand: none

## GAUCUAGGUGUCAGGAUAUGUAGCUAGGUAAGCAGACAGAAGGGACAUGAGGAUCACCCAUGUCGCAAAUUAAU [Gezadi] (Eterna round: R97, puzzle: Brourd's mod of Exclusion 4)
Input ligand: FMN 200 uM
  apparent KD of MS2 coat protein: 86 nM
Input ligand: none
  apparent KD of MS2 coat protein: 18.5 nM

## GCGGACUGGAUCGUGAGAUCCGAGACAUGAGGAUCACCCAUGUAGGAUAUCGAUUGCUUUGCAGUCGAGAAGGGCGUGGUCCGC [JL denovo 16] (Eterna round: R96, puzzle: Exclusion NG 3)
Input ligand: FMN 200 uM
  apparent KD of MS2 coat protein: 54.6 nM
[1]
  apparent KD of MS2 coat protein: 44.9 nM
Input ligand: none
  apparent KD of MS2 coat protein: 59.3 nM

## ACAUGAGGAUCACCCAUGUGACCACGAUGGCUGAUGUAGAGAUAGGAUAUGUGUGAAUAUCUAUCACAGAAGGAUCUUGACUGG [Deportation 53 - Jieux - Exclusion NG 3] (Eterna round: R96, puzzle: Exclusion NG 3)
Input ligand: FMN 200 uM
  apparent KD of MS2 coat protein: 25.2 nM
[1]
  apparent KD of MS2 coat protein: 22.4 nM
Input ligand: none
  apparent KD of MS2 coat protein: 28.5 nM

## UCAAGUAUGUAGGAUAUGAUGUGAUUCUACAUAUCAGAAGGACGUACAUGAGGAUCACCCAUGUAACUUGCAUG [Exclusion 6 - B - 12:d] (puzzle: Exclusion 6)
[2]
  apparent KD of MS2 coat protein: 96.2 nM
[3]
  apparent KD of MS2 coat protein: 33.1 nM
[4]
  apparent KD of MS2 coat protein: 32 nM

## UGAUCAGACCGAGGAUAUACAUGUAGGACGCACGUGAGUGCGUCCAUUACAUGAGGAUCACCCAUGUAGAAGGCGGUCUGAUCU [JL ENG2 1.93] (Eterna round: R96, puzzle: Exclusion NG 2)
Input ligand: FMN 200 uM
  apparent KD of MS2 coat protein: 331 nM
[1]
  apparent KD of MS2 coat protein: 133 nM
Input ligand: none
  apparent KD of MS2 coat protein: 157 nM

## CACCGUAACAGAGGAUAUGAAACAUGAGGAUCACCCAUGUAAUAAAUGAGAAUUUCGAAUGUACCUCAGAAGGCUGAAACCGGC [Ostricism 82 - Jieux - Exclusion NG 2] (Eterna round: R96, puzzle: Exclusion NG 2)
Input ligand: FMN 200 uM
  apparent KD of MS2 coat protein: 56.8 nM
[1]
  apparent KD of MS2 coat protein: 31.9 nM
Input ligand: none
  apparent KD of MS2 coat protein: 43 nM

## GAGUGCUGAGGAUAUACAUGAGGAUCACCCAUGUGCUUCAGCUAGGAGACUAGCAUUGGUAGAAGGCAGUACUC [LRO-Excl3-01] (puzzle: Exclusion 3)
[3]
  apparent KD of MS2 coat protein: 11.1 nM

## ACAUGAGGAUCACCCAUGUAAUCAUGAUGGCUGAUGUAGAGCUAGGAUAUGAGUGGCUUUCUAUCUCAGAAGGAGCUUGACUGG [Deportation 42 - Jieux - Exclusion NG 3] (Eterna round: R96, puzzle: Exclusion NG 3)
Input ligand: FMN 200 uM
  apparent KD of MS2 coat protein: 28.9 nM
[1]
  apparent KD of MS2 coat protein: 25.5 nM
Input ligand: none
  apparent KD of MS2 coat protein: 37.2 nM

## CUCGGCUAAGGAUAUGCAUAGCGGGCCAAGUCUUCUCAAGUACAUGAGGAUCACCCAUGUAGAAGGUAGUUAAC [EX2 B.29] (Eterna round: R97, puzzle: Exclusion 2)
Input ligand: FMN 200 uM
  apparent KD of MS2 coat protein: 22.4 nM
Input ligand: none
  apparent KD of MS2 coat protein: 24.5 nM

## GUUAAGUGAGGAUAUGGUGAGUAGUGCCUGAGCGCUGCUCACCAGAAGGCACAUGAGGAUCACCCAUGUAUAGC [JL-ex4-2.06 denovo] (puzzle: Exclusion 4)
[3]
  apparent KD of MS2 coat protein: 15.2 nM

## CUCAUGUUGGAGGAUAUAUUUGUCAACCGACCGAUAGAAGGCCACACAUGAGGAUCACCCAUGUCAUCCGGAGA [Eternabot (Original) Solution 50] (Eterna round: R97, puzzle: Exclusion 6)
Input ligand: FMN 200 uM
  apparent KD of MS2 coat protein: 28.3 nM
Input ligand: none
  apparent KD of MS2 coat protein: 255 nM

## CUGGUGUGAGGAUAUCAAAGACCUCGGGAUAGUAGCGAGGAUGAGAAGGCACAUGAGGAUCACCCAUGUAACAA [Edmaer] (puzzle: Exclusion 4)
[3]
  apparent KD of MS2 coat protein: 21.2 nM

## ACAUGAGGAUCACCCAUGUGCCCAUCUAGCACAUGUCCUCGCUAGGAUAUGUAGGCCUCGAGGCCGCAGAAGGAGCUAAAAGAG [Atgequa] (Eterna round: R96, puzzle: Exclusion NG 3)
Input ligand: FMN 200 uM
  apparent KD of MS2 coat protein: 453 nM
[1]
  apparent KD of MS2 coat protein: 82.8 nM
Input ligand: none
  apparent KD of MS2 coat protein: 127 nM

## AGCAUGUAAGGAUAUGUAACGCGGCGUUCAUUCGUCGUCCCACAGAAGGUACAUGAGGAUCACCCAUGUGCUCC [Veorla] (puzzle: Exclusion 4)
[3]
  apparent KD of MS2 coat protein: 39 nM

## UUCUUUAUACGAGGAUAUCAUACAUGAGGAUCACCCAUGUGGCUGGGUCUGUUUUUAUAUAAUAUUGAGAAGGCGUUUUGCUAU [JR_ExcNG2_Sub072] (Eterna round: R96, puzzle: Exclusion NG 2)
Input ligand: FMN 200 uM
  apparent KD of MS2 coat protein: 223 nM
[1]
  apparent KD of MS2 coat protein: 70.5 nM
Input ligand: none
  apparent KD of MS2 coat protein: 80.9 nM

## GUGAAGUGAGGAUAUAUGAGAGAGGCUGAACCGGACGAGAAGUAGAAGGCACAUGAGGAUCACCCAUGUAAGGG [JR_Exclu4_Sub024] (puzzle: Exclusion 4)
[2]
  apparent KD of MS2 coat protein: 293 nM
[3]
  apparent KD of MS2 coat protein: 255 nM
[4]
  apparent KD of MS2 coat protein: 372 nM

## AUCAUGUCAGGAUAUAUGACAUGGCUCUUCGGAGCAAGCUCAUAGAAGGGACAUGAGGAUCACCCAUGUAGAGC [Ex4-3: 22] (puzzle: Exclusion 4)
[3]
  apparent KD of MS2 coat protein: 22.1 nM

## AGCUGUGGCCGAGGAUAUCUAAAACUCAAAACCGAAAUAUAAUCGGACAUGAGGAUCACCCAUGUAGAGAAGGCGGUCUCAGCA [Eli eng2 - 078] (Eterna round: R96, puzzle: Exclusion NG 2)
[1]
  apparent KD of MS2 coat protein: 59.4 nM

## CUUAGCCUAAAAUCACGCAAGCUUUUUACUUGUCUUAAGACAUGAGGAUCACCCAUGUCCGGGCUGAACUUAUGGAA [Zaortequ] (puzzle: Sensor v3, turn-off variant 2)
[2]
  apparent KD of MS2 coat protein: 21.2 nM
[3]
  apparent KD of MS2 coat protein: 269 nM
[4]
  apparent KD of MS2 coat protein: 21.4 nM

## CCAUAAAGGAAGGAUAUGCUAGACGAAAGUCUAGCAGAAGGUCCUACAUGAGGAUCACCCAUGUGGCCUCAUGG [Mat - Exclusion 6 - Eli Mod - D49] (Eterna round: R97, puzzle: Exclusion 6)
Input ligand: FMN 200 uM
  apparent KD of MS2 coat protein: 116 nM
Input ligand: none
  apparent KD of MS2 coat protein: 198 nM

## UUGUUAUAUGUAGGAUAUGCGUAUUAUUGUUAUGCAGAAGGACAUGAGGAUCACCCAUGUAUAUUAUUGUUAUAUAUUAUAUAU [Title] (Eterna round: R96, puzzle: Exclusion NG 1)
[1]
  apparent KD of MS2 coat protein: 20.3 nM

## UUUAUAAUUUCAAUCUUCGCUGGCGAACUUACGCCAGCCACAUGAGGAUCACCCAUGUUUUUUGUUCGUUUUAUUCU [Gelaoren] (puzzle: Sensor v3, turn-off variant 2)
[2]
  apparent KD of MS2 coat protein: 19.5 nM
[3]
  apparent KD of MS2 coat protein: 66.6 nM
[4]
  apparent KD of MS2 coat protein: 21.1 nM

## ACAUGAGGAUCACCCAUGUACACGUAAUGGCUCAUGUAGAGUGAGGAUAUGUGUGACGAACGAGCACAGAAGGCACAAGACUGG [Deportation 12 - Jieux - Exclusion NG 3] (Eterna round: R96, puzzle: Exclusion NG 3)
Input ligand: FMN 200 uM
  apparent KD of MS2 coat protein: 51.8 nM
[1]
  apparent KD of MS2 coat protein: 39.8 nM
Input ligand: none
  apparent KD of MS2 coat protein: 40.2 nM

## UGUACGAUGCGUGCUGACAUGCGUCGUGCAGCAGGUGAUACAUGAGGAUCACCCAUGUCCUCAUUUGCUCGUCAUGU [Mat - Sensor v3 - Turn-off var 2 - D25] (puzzle: Sensor v3, turn-off variant 2)
[2]
  apparent KD of MS2 coat protein: 73.4 nM
[3]
  apparent KD of MS2 coat protein: 384 nM
[4]
  apparent KD of MS2 coat protein: 91.3 nM

## CUGAUGUCAGGAUAUCGGUGGCUCACUAAUGUGUGCCAGACCGAGAAGGGACAUGAGGAUCACCCAUGUCUUUA [Exclusion 4 (Mod5b of #36 by Marzena11)] (Eterna round: R97, puzzle: Exclusion 4)
Input ligand: FMN 200 uM
  apparent KD of MS2 coat protein: 42.4 nM
Input ligand: none
  apparent KD of MS2 coat protein: 26.2 nM

## GUAACAUGCUGGUGAUCAUACAUGAGGAUCACCCAUGUAACAAGCUUUUUGCUCGUCUUAUAAGAUCACCAGCAUGU [Stov1/9-A3] (Eterna round: R97, puzzle: Sensor, turn-off variant 1)
Input ligand: FMN 200 uM
  apparent KD of MS2 coat protein: 12.2 nM
Input ligand: none
  apparent KD of MS2 coat protein: 13.6 nM

## UAUCAGCAAGUGAGGAUAUAGAGAACGGUUGUUGGCUAGAAGGCACUUGAGGAUCACCCAAGUCGCAAAGUGGC [Mamausonbe] (Eterna round: R97, puzzle: Brourd's mod of Exclusion 4)
Input ligand: FMN 200 uM
  apparent KD of MS2 coat protein: 134 nM
Input ligand: none
  apparent KD of MS2 coat protein: 29.3 nM

## ACAAGCUAAAUCAUAUCUUACAUGAGGAUCACCCAUGUUUUUGCAAUUAUGUUUGGGCUCUUUUGUGCUCGUCUUAU [JR_STOV1_Sub050] (Eterna round: R97, puzzle: Sensor, turn-off variant 1)
Input ligand: FMN 200 uM
  apparent KD of MS2 coat protein: 16.1 nM
Input ligand: none
  apparent KD of MS2 coat protein: 17.6 nM

## AAAAAACAAGGAUAUACGAAGGAGGGUUGUCUUAAUUUUUGACAUGAGGAUCACCCAUGUAGAAGGUGUUAAAA [JR_Exclusion2_Sub012] (puzzle: Exclusion 2)
[2]
  apparent KD of MS2 coat protein: 146 nM
[3]
  apparent KD of MS2 coat protein: 186 nM
[4]
  apparent KD of MS2 coat protein: 188 nM

## GUCCUACAUGAGGAUCACCCAUGUAAGGAUAUGCUAGCGGUCGGCUGACUGACUGCUAGCAGAAGGUACAUGAU (puzzle: Exclusion 1)
[3]
  apparent KD of MS2 coat protein: 15.6 nM

## CGAUGAGGAGUGAGGAUAUCGUGUUCGAAAGAACGUGAGAAGGCACAUGAGGAUCACCCAUGUGAUCCUUGUCG [Omei Ex4B A9] (Eterna round: R97, puzzle: Brourd's mod of Exclusion 4)
Input ligand: FMN 200 uM
  apparent KD of MS2 coat protein: 57.2 nM
Input ligand: none
  apparent KD of MS2 coat protein: 30.4 nM

## CUGCUCCGUGUAGGAUAUGCAUACUCCCAUUAUGCAGAAGGACAUGAGGAUCACCCAUGUAUGUUAUUAUCACGUGUAGCGUAC [Design 15] (Eterna round: R96, puzzle: Exclusion NG 1)
Input ligand: FMN 200 uM
  apparent KD of MS2 coat protein: 104 nM
[1]
  apparent KD of MS2 coat protein: 21.2 nM
Input ligand: none
  apparent KD of MS2 coat protein: 29.9 nM

## AGUAACUAUCACGAAAGUGAUAGUUACACAAGUGUAAUAACAUGAGGAUCACCCAUGUCCUCAUUUGCUCGUCUUAU [Sensor 3 - 34] (puzzle: Sensor v3, turn-off variant 2)
[2]
  apparent KD of MS2 coat protein: 149 nM
[3]
  apparent KD of MS2 coat protein: 162 nM
[4]
  apparent KD of MS2 coat protein: 33.6 nM

## CGAUAUAACGUAGGAUAUCUGAGAAAUAGAUGAAGAGAAGGACGACAUGAGGAUCACCCAUGUGAUCUAUCAAUAUUAUACAUG [Prohibition 96 - Jieux - Exclusion NG 1] (Eterna round: R96, puzzle: Exclusion NG 1)
Input ligand: FMN 200 uM
  apparent KD of MS2 coat protein: 722 nM
[1]
  apparent KD of MS2 coat protein: 694 nM
Input ligand: none
  apparent KD of MS2 coat protein: 604 nM
